Consider 1 substance from paper PMC6642127.

The assay has as its target P8 carrier peptide (Influenza H5N1). Description: AUC.

The term stoichiometry N denotes a count of units in the complex or per binding partner. Take P8 carrier peptide: the percent of the peptide as trimers came to 70% and the stoichiometry N is 3.
